B1: Ribonucleoside-diphosphate reductase large subunit (Human herpesvirus 2 (strain HG52) (HHV-2)), P89462 (parent)
chain: MANRPAASALAGARSPSERQEPREPEVAPPGGDHVFCRKVSGVMVLSSDPPGPAAYRISDSSFVQCGSNCSMIIDGDVARGHLRDLEGATSTGAFVAISNVAAGGDGRTAVVALGGTSGPSATTSVGTQTSGEFLHGNPRTPEPQGPQAVPPPPPPPFPWGHECCARRDARGGAEKDVGAAESWSDGPSSDSETEDSDSSDEDTGSETLSRSSSIWAAGATDDDDSDSDSRSDDSVQPDVVVRRRWSDGPAPVAFPKPRRPGDSPGNPGLGAGTGPGSATDPRASADSDSAAHAAAPQADVAPVLDSQPTVGTDPGYPVPLELTPENAEAVARFLGDAVDREPALMLEYFCRCAREESKRVPPRTFGSAPRLTEDDFGLLNYALAEMRRLCLDLPPVPPNAYTPYHLREYATRLVNGFKPLVRRSARLYRILGVLVHLRIRTREASFEEWMRSKEVDLDFGLTERLREHEAQLMILAQALNPYDCLIHSTPNTLVERGLQSALKYEEFYLKRFGGHYMESVFQMYTRIAGFLACRATRGMRHIALGRQGSWWEMFKFFFHRLYDHQIVPSTPAMLNLGTRNYYTSSCYLVNPQATTNQATLRAITGNVSAILARNGGIGLCMQAFNDASPGTASIMPALKVLDSLVAAHNKQSTRPTGACVYLEPWHSDVRAVLRMKGVLAGEEAQRCDNIFSALWMPDLFFKRLIRHLDGEKNVTWSLFDRDTSMSLADFHGEEFEKLYEHLEAMGFGETIPIQDLAYAIVRSAATTGSPFIMFKDAVNRHYIYDTQGAAIAGSNLCTEIVHPASKRSSGVCNLGSVNLARCVSRQTFDFGRLRDAVQACVLMVNIMIDSTLQPTPQCTRGNDNLRSMGIGMQGLHTACLKMGLDLESAEFRDLNTHIAEVMLLAAMKTSNALCVRGARPFSHFKRSMYRAGRFHWERFSNASPRYEGEWEMLRQSMMKHGLRNSQFIALMPTAASAQISDVSEGFAPLFTNLFSKVTRDGETLRPNTLLLKELERTFGGKRLLDAMDGLEAKQWSVAQALPCLDPAHPLRRFKTAFDYDQELLIDLCADRAPYVDHSQSMTLYVTEKADGTLPASTLVRLLVHAYKRGLKTGMYYCKVRKATNSGVFAGDDNIVCTSCAL

Variants of: B1
Settings: with ripk3_human RIPK3, Q9Y572
Sequence of ripk3_human RIPK3, Q9Y572 (Q9Y572 whole entry, looked up): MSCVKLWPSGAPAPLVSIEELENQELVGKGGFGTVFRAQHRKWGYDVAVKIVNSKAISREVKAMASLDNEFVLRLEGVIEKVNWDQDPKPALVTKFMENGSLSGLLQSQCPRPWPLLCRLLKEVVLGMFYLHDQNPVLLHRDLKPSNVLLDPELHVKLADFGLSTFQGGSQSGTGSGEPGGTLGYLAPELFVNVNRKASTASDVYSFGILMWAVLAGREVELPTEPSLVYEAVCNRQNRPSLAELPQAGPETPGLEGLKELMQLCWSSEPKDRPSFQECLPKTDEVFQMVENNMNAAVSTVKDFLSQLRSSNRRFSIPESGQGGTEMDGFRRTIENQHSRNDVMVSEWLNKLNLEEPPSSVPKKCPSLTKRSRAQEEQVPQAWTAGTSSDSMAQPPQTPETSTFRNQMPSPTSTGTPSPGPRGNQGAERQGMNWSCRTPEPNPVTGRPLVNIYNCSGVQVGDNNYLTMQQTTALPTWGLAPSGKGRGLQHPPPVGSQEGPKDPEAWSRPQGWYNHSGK

Row | Variant | effect of a mutation on the interaction
1 | V64A;Q65A;C66A;G67A | decreasing interaction strength

Reference: IntAct's records for PubMed 26559832
